Data as given in article PMC9968005, “Therapeutic Performance Evaluation of ^213Bi-Labelled Aminopeptidase N (APN/CD13)-Affine NGR-Motif ([^213Bi]Bi-DOTAGA-cKNGRE) in Experimental Tumour Model: A Treasured Tailor for Oncology” (Pharmaceutics, 2023).

Assays:
[1] = system: CD13pos. HT1080 fibrosarcoma; details: mouse, in vivo; cited from earlier work
Description: The tumour-targeting potential of [^213Bi]Bi-DOTAGA-cKNGRE was also evaluated in HT1080 tumour-bearing CB17 mice. […] Although the tumourous tracer activity decreased from 30 to 90 min post-administration, relatively higher accumulation of the HT1080 neoplasms compared with the other organs at 90 min time point yields better tumour-to-background (T/M) ratios and image contrast. The tumour-to-organs ratio is ...

[2] = system: HT1080 fibrosarcoma; experiment: Cancer treatment study: tumour volume; format: in vivo, CB17 SCID mice; details: approximately 5 MBq i.p. on days 7, 8, 10, 12, calliper, mean ± SD
Description: (§1) Experimental tumour induction was carried out under inhalation anaesthesia with a dedicated small animal anaesthesia device (Tec3 Isoflurane Vaporizer, Eickemeyer Veterinary Equipment, Luton, UK) applying 3% isoflurane (Forane, AbbVie, Chicago, IL, USA), 0.4 L/min O2 and 1.4 L/min N2O. This was followed by depilation and disinfection subcutaneous (s.c.) inoculation of 1.5 × 10^6 HT1080 (human fibrosarcoma) cells in 100 μL (1/3 part of Matrigel and 2/3 part of saline) into the left shoulder area of the CB17 SCID mice. For tumour verification the study mice underwent in vivo [^68Ga]Ga-DOTAGA-cKNGRE-based PET imaging 10 ± 1 days post tumour cell inoculation. To evaluate the organ distribution pattern of the ^213Bi-labelled therapeutic peptide compounds, ex vivo biodistribution studies were also executed 10 ± 1 days following the HT1080 cell transplantation at an average tumour volume of 155 ± 20 mm^3. Thereafter, tumour sizes based on the largest and the smallest tumour diameters were registered ((largest diameter × smallest diameter^2)/2). We used calliper measurements for tumour growth determination.
Seven days after HT1080 cell inoculation the tumour-bearing animals were randomly classified into two subgroups: treatment-naïve group (control, n = 8) and [^213Bi]Bi-DOTAGA-cKNGRE-treated group (treated, n = 8). Approximately 5 MBq [^213Bi]Bi-DOTAGA-cKNGRE was intraperitoneally (i.p.) administered to the experimental mice of the treated cohort on the 7th, 8th, 10th and 12th experimental days. The control mice were i.p. injected with 150 μL saline solution applying the same time regime.
On the 7th, 8th, 10th and 12th days of the investigation at an average tumour volume of 26.56 ± 2.39 mm^3 CB17 SCID mice bearing HT1080 fibrosarcoma in their left shoulder area were i.p. injected with approximately 5 MBq [^213Bi]Bi-DOTAGA- cKNGRE. The treatment-naïve study mice i.p. received 150 μL saline solution on the same experimental days. In a bid to assess the therapeutic efficacy of the investigated probe, body weights (BW, expressed in grams/g ± SD) and tumour volume (mm^3 ± SD) of the small animals were registered. Calliper measurements were applied to evaluate tumour development.

[3] = in vivo; set-up: species or system CB17 SCID mice; details: CB17 SCID, mouse, 5 MBq, total radioactivity
Description: as §1
To assess the organ distribution of [^213Bi]Bi-DOTAGA-cKNGRE, ex vivo investigations were performed. The HT1080 fibrosarcoma-bearing experimental mice were anaesthetised with Forane (5%) and were sacrificed at 30 and 90 min post administration of the radiopharmaceutical. After autopsy, selected tissues, organs and the tumour itself were removed, weighed wet and their radioactivity was measured on a calibrated gamma counter (Perkin-Elmer Packard Cobra, Waltham, MA, USA). Then, the activity was decay corrected to the time of the injection. The percent of administered dose per gram of tissue (%ID/g) was determined for all samples from the counts per minute values (CPM). We presented the ex vivo data as mean %ID/g ± SD.

[4] = LogP measurement of [205/206Bi]Bi-DOTAGA-cKNGRE (n-octanol/water); format: physicochemical; details: shake-flask n-octanol/water, 205/206Bi as surrogates for 213Bi, 10 µL tracer in saline + 0.49 mL water + 0.5 mL n-octanol, shaken 5 min, centrifuged 6000 rpm 5 min, gamma counter
Description: For the determination of LogP value we used ^205/206Bi isotopes as surrogates which were produced by GE PETtrace cyclotron using the method described by Lagunas-Solar et al.. The radiolabelling of the precursor was carried out as follows: 50 µL of 3 M NH4OAc buffer (pH 4) and 15 µL of 6 mM DOTAGA-cKNGRE aqueous solution were added to 50 µL [^205/206Bi]BiCl3 in 0.1 M HCl. The labelled complex was purified as described above. Then 10 µL of the purified [^205/206Bi]Bi-DOTAGA-cKNGRE in physiological saline (Salsol, TEVA, Debrecen, Hungary) was diluted with 0.49 mL water. It was then mixed with 0.5 mL n-octanol in a vial and shaken for 5 min. After centrifugation (6000 rpm, 5 min) the radioactivity of the sample from both the aqueous and n-octanol phase was measured with a Perkin Elmer Packard Cobra gamma counter. The LogP value was −2.59.

[5] = Serum stability of [205/206Bi]Bi-DOTAGA-cKNGRE; format: in vitro ADME; details: mouse plasma (heading says serum); 50 µL tracer in saline + 50 µL mouse plasma, 90 min, radio-iTLC; read-out: RCP after 90 min incubation in serum
Description: Fifty μL of [^205/206Bi]Bi-DOTAGA-Bn-cKNGRE in physiological saline (Salsol, TEVA, Debrecen, Hungary) was added to the solution of fifty μL of mouse plasma. The RCP of the samples was determined by radio-iTLC at 0, 30, 60 and 90 min time points using the same method as described above. After 90 min the [^205/206Bi]Bi-DOTAGA-Bn-cKNGRE remained intact as the RCP of the sample taken from the mixture was above 95%, which meets the requirements for ^213Bi-labelled radiopharmaceuticals.

Q: With “^68Ga-NOTA-Gly3-CNGRC [[^68Ga]Ga-NOTA-G3-NGR, ^68Ga-tagged CD13-affine peptide derivate, literature PET tracer]” as the compound, how does the tumour accumulation [1] read?
A: 4.96 ± 3.18 ID%/g

Q: For `N=C(N)NCCC[C@@H]1NC(=O)CNC(=O)[C@H](CC(N)=O)NC(=O)[C@H](CCCCNC(=S)Nc2ccc(CNC(=O)CCC(C(=O)O)N3CCN(CC(=O)O)CCN(CC(=O)O)CCN(CC(=O)O)CC3)cc2)NC(=O)CC[C@@H](C(N)=O)NC1=O` (some centres unmarked) [[^213Bi]Bi-DOTAGA-cKNGRE, metal not drawn], which tumour volume ([2]; day 7) is on record?
A: 28.25 ± 2.67 mm^3

Q: And the tumour volume ([2]; day 8)?
A: 23.33 ± 6.87 mm^3

Q: What about the tumour volume ([2]; day 9, p ≤ 0.01 vs untreated) of the same compound?
A: 35.36 ± 7.57 mm^3

Q: And the tumour volume ([2]; day 10, p ≤ 0.01 vs untreated)?
A: 58.33 ± 14.36 mm^3

Q: What about the tumour volume ([2]; day 12, p ≤ 0.01 vs untreated) of the same compound?
A: 112.50 ± 18.42 mm^3

Q: What about the tissue uptake at 0.5 h ([3]; HT1080 tumor) of the same compound?
A: 1.48 ± 0.18 %ID/g

Q: What about the tissue uptake at 1.5 h ([3]; HT1080 tumor) of the same compound?
A: 0.8 ± 0.16 %ID/g

Q: What about the tissue uptake at 0.5 h ([3]; blood) of the same compound?
A: 2.72 ± 0.22 %ID/g

Q: What about the tissue uptake at 0.5 h ([3]; bone (femur)) of the same compound?
A: 0.69 ± 0.38 %ID/g

Q: And the tissue uptake at 0.5 h ([3]; fat)?
A: 0.72 ± 0.05 %ID/g

Q: And the tissue uptake at 0.5 h ([3]; kidney)?
A: 11.4 ± 1.41 %ID/g

Q: And the tissue uptake at 1.5 h ([3]; kidney)?
A: 4.51 ± 1.21 %ID/g

Q: What about the tissue uptake at 0.5 h ([3]; lung) of the same compound?
A: 2.09 ± 0.74 %ID/g

Q: And the tissue uptake at 1.5 h ([3]; muscle)?
A: 0.06 ± 0.02 %ID/g

Q: What about the tissue uptake at 0.5 h ([3]; pancreas) of the same compound?
A: 0.57 ± 0.18 %ID/g

Q: What about the tissue uptake at 1.5 h ([3]; pancreas) of the same compound?
A: 0.08 ± 0.03 %ID/g

Q: What about the tissue uptake at 0.5 h ([3]; stomach) of the same compound?
A: 0.73 ± 0.04 %ID/g

Q: For `N=C(N)NCCC[C@@H]1NC(=O)CNC(=O)[C@H](CC(N)=O)NC(=O)[C@H](CCCCNC(=S)Nc2ccc(CNC(=O)CCC(C(=O)O)N3CCN(CC(=O)O)CCN(CC(=O)O)CCN(CC(=O)O)CC3)cc2)NC(=O)CC[C@@H](C(N)=O)NC1=O` (some centres unmarked) [[^205/206Bi]Bi-DOTAGA-cKNGRE], which LogP value [4] is on record?
A: −2.59

Q: And the remaining at 1.5 h [5]?
A: > 95%
